The nature of data set [1]: SEC analysis of MVP stability samples aged at 37° C. Format: physicochemical. The following applies: anti-VEGF DARPin MVPs stored up to 71 days at 37° C., compared with Conjugate 2. Here is the method: Stability study samples were analyzed using HPLC size exclusion chromatography (SEC). This method was also used to analyze MVP formation and percent unreacted protein after purification. To assess stability via SEC, MVP was filtered to remove particles and analyzed using a Shodex 1 MDa Ohpak LB-804, Shodex KW-404 or 405, or Phenomenex PolySep6000 column with DPBS or appropriate solvent as the mobile phase to get baseline trace at 280 nm, 230 nm, etc. After various time points samples were removed and analyzed using the same SEC method. Increases in retention time and peak width relative to the baseline sample indicated degradation. In addition, decreases in MVP peak area and/or increases in monomer and dimer protein species peak area also indicate MVP degradation. Percent conjugate loss was quantified by comparing peak area differences with time. In the future, the SEC stability analysis will be coupled with MALS to quantify molecular weight and valency changes of the conjugate with age at different temperatures. […]
Stability study samples were also analyzed by coupling SEC with MALS analysis for determination of MVP radius of gyration (Rg,z) and molecular weight at different time points after aging at 37° C. […] System-specific calibration numbers, normalization coefficients, delay volumes, and band broadening terms were determined for the system prior to analysis. […]
(In gel filtration, larger molecules generally elute earlier.)

A further data set concerns the target T1, Human VEGF 165 (Homo sapiens, UniProt P15692).
T1 construct: Avi; purchased R&D Systems AVI-293-050
T1 sequence (P15692 27-191 isoform P15692-4): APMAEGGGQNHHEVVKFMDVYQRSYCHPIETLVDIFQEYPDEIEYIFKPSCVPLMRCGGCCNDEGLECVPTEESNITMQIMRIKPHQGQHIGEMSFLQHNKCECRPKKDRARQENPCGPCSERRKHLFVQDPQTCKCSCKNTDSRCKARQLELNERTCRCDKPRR
Description: Accelerated 37° C. stability study, VEGF binding by BLI over time. The following applies: DARPin MVPs, aging 28 and 32 days at 37° C., compared with Conjugate 2. Here is the method:
MVP stability was assessed by setting up a long term accelerated […] stability by maintaining the MVPs at 37° C. at 5-10X the therapeutic concentration in pH 7.3 vitreous mimetic buffer (Table 19) or pH 7.4 PBS 0.01% tween 20. MVP stability was assessed using SEC MALS or SEC, DLS, and/or BLI analysis of samples removed after various times.
Long-term 37° C. stability studies were set up to assess composition impact on MVP stability. MVPs were synthesized under sterile conditions and diluted to around 0.4 mg/mL in a sterile filtered human vitreous mimetic buffer. This concentration is 5X higher than intravitreal therapeutic concentration of our predicted clinical dose. […] At discrete timepoints, one aliquot from each sample was removed from the plate under sterile conditions and analyzed. […] Then, the protein concentration is measured to adjust for any differences in volume that may have occurred. The binding affinity to is measured using BLI. […] To monitor changes in radius over time, the samples are spun for 5 minutes at 5000 g to remove any large aggregates or dust particles and the Rh is measured using DLS without any sample dilution.
The change in binding affinity over time using biolayer interferometry (BLI) was also determined. […] Analytes were prepared at the top concentration determined in pilot reactions in BLI buffer and serially diluted 1:3 two to five more times using BLI buffer. […]

Entries after “also recorded” stand apart in the source; their conditions may differ.

B1: Conjugate 1: HA conjugate of anti-VEGF DARPin peptide SEQ ID NO: 92, made from Method 5 intermediate 5-4 (MP2H) (conjugate)
chain: GSDLDKKLLEAARAGQDDEVRILMANGADVNARDSTGWTPLHLAAPWGHPEIVEVLLKNGADVNAADFQGWTPLHLAAAVGHLEIVEVLLKYGADVNAQDKFGKTAFDISIDNGNEDLAEILQKAAGGGSGGGS
modifications: hyaluronic acid conjugate; anti-VEGF DARPIN
With B1, the “SEC retention time / radius change with aging” value in data set [1] was “much larger increase in retention time and contraction of radius; also recorded: larger losses in radius with aging”. Further, the “association constant (Kon) initially and with aging” value with Human VEGF 165 was “lower Kon and slower association initially and with aging”.

The values above are taken from US20230405133A1, “PURIFIED MULTIVALENT PROTEIN-HYALURONIC ACID POLYMER CONJUGATES” (Valitor, Inc., priority 2022, published 2023).
